The test system of data set [1] is human IgE (human). In words: imaging weak measurement, aptamer-antibody sandwich. The note with it: 25 ng/mL; CA125 antibody (CA125 gave 665.83 a.u.); 5'-NH2; PBS+ (10 mM PBS, 5 mM MgCl2) as reference channel; aptamer 2 uM immobilized on polydopamine-coated prism, 2% blocking solution; readout at 55 min; pH and ….
For data set [2], the system named is human IgG (human). Described as above. The note with it: 25 ng/mL; CA125 antibody (CA125 gave 665.83 a.u.); 5'-NH2; PBS+ (10 mM PBS, 5 mM MgCl2) as reference channel; aptamer 2 uM immobilized on polydopamine-coated prism, 2% blocking solution; readout at 55 min; pH and ….
For data set [3], the target named is CA125 (carbohydrate antigen 125) (UniProt Q8WXI7 1-14451). The experiment in a line: imaging weak measurement, aptamer-antibody sandwich; CA125 50 U/mL; CA125 antibody; PBS+ (10 mM PBS, 5 mM MgCl2) as reference channel; aptamer 2 uM immobilized on polydopamine-coated prism, 2% blocking solution; readout at 55 min; pH and temperature not stated. The note with it: protein: commercial.

With “CTCACTACTATAGGGATAGGGAGACAAGAATAAACGCTCAA [CA125-1 aptamer]”, the binding signal in data set [1] and in data set [2] was less than 35 a.u each time. The molecule CTCACTACTATAGGGATAGGGAGACAAGAATAAACGCTCAA (ssDNA, 5'-NH2) [CA125-1 aptamer] yielded a binding signal in data set [3] of 735 a.u. Same read-out and setting: in the case of TATCAATTACTTACCCTAGTGGTGTGATGTCGTATGGATG (ssDNA, 5'-NH2-C6) [CA125-3 aptamer] it was 647 a.u; in that of TTATCGTACGACAGTCATCCTACAC (ssDNA, 5'-NH2-C6) [CA125-2 aptamer], 695 a.u.
